{"source": "patent US20040253685A1", "key": {"[1]": {"target": "T1, wild type bovine endothelial nitric oxide synthase (eNOS) (bovine) (UniProt P29473)", "T1 sequence (looked up)": "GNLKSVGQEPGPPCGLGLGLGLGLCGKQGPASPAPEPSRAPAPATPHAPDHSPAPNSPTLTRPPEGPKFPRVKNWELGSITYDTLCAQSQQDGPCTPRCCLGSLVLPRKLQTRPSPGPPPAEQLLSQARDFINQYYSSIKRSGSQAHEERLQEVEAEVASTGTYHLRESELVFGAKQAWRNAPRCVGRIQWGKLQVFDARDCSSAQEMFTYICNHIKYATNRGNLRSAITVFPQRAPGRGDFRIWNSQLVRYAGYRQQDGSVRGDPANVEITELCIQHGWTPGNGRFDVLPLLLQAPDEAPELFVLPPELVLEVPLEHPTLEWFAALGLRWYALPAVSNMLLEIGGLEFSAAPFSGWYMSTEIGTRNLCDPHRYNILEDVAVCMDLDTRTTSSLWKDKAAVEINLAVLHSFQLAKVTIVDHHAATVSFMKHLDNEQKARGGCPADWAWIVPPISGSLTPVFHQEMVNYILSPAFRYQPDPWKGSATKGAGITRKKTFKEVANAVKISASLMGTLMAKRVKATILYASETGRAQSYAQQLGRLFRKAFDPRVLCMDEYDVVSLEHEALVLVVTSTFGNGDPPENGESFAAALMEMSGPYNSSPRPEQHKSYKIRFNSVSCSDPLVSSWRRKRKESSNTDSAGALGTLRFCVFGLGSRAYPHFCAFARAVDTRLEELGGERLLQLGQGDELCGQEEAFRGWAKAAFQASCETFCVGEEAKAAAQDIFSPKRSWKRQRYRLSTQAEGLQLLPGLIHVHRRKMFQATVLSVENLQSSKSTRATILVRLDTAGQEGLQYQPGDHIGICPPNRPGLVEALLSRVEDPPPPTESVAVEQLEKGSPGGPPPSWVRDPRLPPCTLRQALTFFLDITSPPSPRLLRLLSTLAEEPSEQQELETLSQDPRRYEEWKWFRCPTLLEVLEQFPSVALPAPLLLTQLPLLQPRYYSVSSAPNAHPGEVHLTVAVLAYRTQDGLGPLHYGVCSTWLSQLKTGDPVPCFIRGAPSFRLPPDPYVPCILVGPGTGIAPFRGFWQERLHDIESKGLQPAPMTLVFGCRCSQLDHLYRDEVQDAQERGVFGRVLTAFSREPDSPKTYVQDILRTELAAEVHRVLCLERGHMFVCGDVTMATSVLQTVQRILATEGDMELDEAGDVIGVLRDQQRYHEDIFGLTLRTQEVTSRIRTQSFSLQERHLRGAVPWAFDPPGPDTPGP", "assay": "cell-based or functional assay"}, "[2]": {"target": "S1179D eNOS (bovine) (bovine) (UniProt P29473)", "assay": "cell-based or functional assay"}}}
{"substance": "HA-tagged kinase inactive Akt (K179M) (enzyme)", "values": [{"measurement": "cGMP accumulation (assayed in COS cells)", "setting": "[1]", "result": 5.8, "unit": "pmol cGMP"}]}
{"substance": "HA-tagged wild-type Akt (protein kinase B) (enzyme)", "values": [{"measurement": "phosphorylation of eNOS in 32P-orthophosphate labeled COS cells", "setting": "[1]", "result": 2, "unit": "fold"}]}
{"substance": "calmodulin", "values": [{"measurement": "EC50 for CaM, NADPH-mediated cytochrome c reduction as a function of CaM concentration", "setting": "[1]", "result": 13, "unit": "nM"}, {"measurement": "EC50 for CaM, NOS activity (L-Citrulline) as a function of CaM concentration", "setting": "[1]", "result": 8, "unit": "nM"}, {"measurement": "EC50 for CaM, NADPH-mediated cytochrome c reduction as a function of CaM concentration", "setting": "[2]", "result": 21, "unit": "nM"}, {"measurement": "EC50 for CaM, NOS activity (L-Citrulline) as a function of CaM concentration", "setting": "[2]", "result": 7, "unit": "nM"}]}
{"substance": "constitutively active form of Akt (myr-Akt) (enzyme)", "values": [{"measurement": "cGMP accumulation (assayed in COS cells) (pmol cGMP/mg protein)", "setting": "[1]", "result": 11.6}]}
